Publication PMC12643061, “Structural dynamics of the plant hormone receptor ETR1 in a native‐like membrane environment” (Febs Letters, 2025)

Target: the molecule itself
Experiment: SEC; ETR1 in DMPC/MSP1E3D1 nanodiscs; Superose 6 Increase 10/300 GL, 50 mM Tris-HCl pH 8.0, 200 mM NaCl, 0.3 mL/min; column calibrated with protein standards; elution volume 16.77 mL, ~450 kDa

B1: ethylene receptor 1 (ETR1) from Arabidopsis thaliana, full-length, with N-terminal 10xHis-tag (receptor, UniProt P49333 1-738, looked up)
chain: MEVCNCIEPQWPADELLMKYQYISDFFIAIAYFSIPLELIYFVKKSAVFPYRWVLVQFGAFIVLCGATHLINLWTFTTHSRTVALVMTTAKVLTAVVSCATALMLVHIIPDLLSVKTRELFLKNKAAELDREMGLIRTQEETGRHVRMLTHEIRSTLDRHTILKTTLVELGRTLALEECALWMPTRTGLELQLSYTLRHQHPVEYTVPIQLPVINQVFGTSRAVKISPNSPVARLRPVSGKYMLGEVVAVRVPLLHLSNFQINDWPELSTKRYALMVLMLPSDSARQWHVHELELVEVVADQVAVALSHAAILEESMRARDLLMEQNVALDLARREAETAIRARNDFLAVMNHEMRTPMHAIIALSSLLQETELTPEQRLMVETILKSSNLLATLMNDVLDLSRLEDGSLQLELGTFNLHTLFREVLNLIKPIAVVKKLPITLNLAPDLPEFVVGDEKRLMQIILNIVGNAVKFSKQGSISVTALVTKSDTRAADFFVVPTGSHFYLRVKVKDSGAGINPQDIPKIFTKFAQTQSLATRSSGGSGLGLAISKRFVNLMEGNIWIESDGLGKGCTAIFDVKLGISERSNESKQSGIPKVPAIPRHSNFTGLKVLVMDENGVSRMVTKGLLVHLGCEVTTVSSNEECLRVVSHEHKVVFMDVCMPGVENYQIALRIHEKFTKQRHQRPLLVALSGNTDKSTKEKCMSFGLDGVLLKPVSLDNIRDVLSDLLEPRVLYEGM
notes: Ethylene receptor 1 (ETR1), Arabidopsis thaliana, full length, 738 residues, 82.5 kDa per monomer; Membrane protein, measured embedded in DMPC nanodiscs held by the scaffold protein MSP1E3D1 (His-tag cleaved by TEV); No cleavage of the ETR1 His-tag is described; the loaded nanodiscs were eluted from Ni-INDIGO beads by it just before SEC; also called ETR1_10xHis; ethylene receptor ETR1; source: E. …
- stoichiometry N: 2
